Data: article PMC4769319, “Cohesin Releases DNA through Asymmetric ATPase-Driven Ring Opening” (Molecular Cell, 2016)
Residue numbers refer to the chain shown, from its start. In names and notes the source's numbering stands.

T1: full-length StrepII-Smc3 (wild-type) (S. cerevisiae, UniProt P47037 1-1230)
T1 construct: Smc3, S. cerevisiae, full length; source: Sf9 insect cells, expressed alone, purified (Strep-II tag purification, size-exclusion chromatography)
T1 sequence (looked up): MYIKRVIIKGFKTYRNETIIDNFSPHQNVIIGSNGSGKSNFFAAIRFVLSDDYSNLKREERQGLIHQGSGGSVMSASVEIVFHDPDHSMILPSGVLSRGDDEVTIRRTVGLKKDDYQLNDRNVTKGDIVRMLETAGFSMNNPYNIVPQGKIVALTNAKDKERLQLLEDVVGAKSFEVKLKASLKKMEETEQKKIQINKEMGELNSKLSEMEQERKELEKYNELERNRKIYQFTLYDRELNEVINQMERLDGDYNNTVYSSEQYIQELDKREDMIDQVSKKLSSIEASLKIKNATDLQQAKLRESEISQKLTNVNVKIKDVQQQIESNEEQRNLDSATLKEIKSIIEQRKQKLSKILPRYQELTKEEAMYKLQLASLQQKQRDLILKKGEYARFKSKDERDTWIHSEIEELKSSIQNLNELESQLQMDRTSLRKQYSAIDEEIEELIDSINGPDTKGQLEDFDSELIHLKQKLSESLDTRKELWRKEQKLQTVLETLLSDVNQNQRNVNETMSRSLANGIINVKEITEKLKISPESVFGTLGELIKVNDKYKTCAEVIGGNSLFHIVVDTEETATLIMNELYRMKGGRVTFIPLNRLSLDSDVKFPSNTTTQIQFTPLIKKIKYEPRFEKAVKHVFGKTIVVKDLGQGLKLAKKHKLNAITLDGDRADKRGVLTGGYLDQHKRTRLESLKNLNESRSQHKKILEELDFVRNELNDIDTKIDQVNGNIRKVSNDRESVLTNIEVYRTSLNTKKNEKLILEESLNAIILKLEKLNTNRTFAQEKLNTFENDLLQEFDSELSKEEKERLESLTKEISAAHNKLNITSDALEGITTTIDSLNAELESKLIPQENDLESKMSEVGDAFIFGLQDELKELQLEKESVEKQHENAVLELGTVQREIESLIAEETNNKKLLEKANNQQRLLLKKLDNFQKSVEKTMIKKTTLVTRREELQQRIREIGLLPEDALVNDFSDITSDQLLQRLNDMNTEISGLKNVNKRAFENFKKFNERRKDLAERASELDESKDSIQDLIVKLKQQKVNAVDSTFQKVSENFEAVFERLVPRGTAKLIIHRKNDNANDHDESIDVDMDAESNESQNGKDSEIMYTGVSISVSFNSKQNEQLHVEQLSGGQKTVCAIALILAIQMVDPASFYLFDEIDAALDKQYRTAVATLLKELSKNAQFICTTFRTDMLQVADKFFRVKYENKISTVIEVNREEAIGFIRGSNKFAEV

B1: full-length HIS6-Smc1 (wild-type) (natural protein, S. cerevisiae, UniProt P32908 1-1225, looked up)
chain: MGRLVGLELSNFKSYRGVTKVGFGESNFTSIIGPNGSGKSNMMDAISFVLGVRSNHLRSNILKDLIYRGVLNDENSDDYDNEGAASSNPQSAYVKAFYQKGNKLVELMRIISRNGDTSYKIDGKTVSYKDYSIFLENENILIKAKNFLVFQGDVEQIAAQSPVELSRMFEEVSGSIQYKKEYEELKEKIEKLSKSATESIKNRRRIHGELKTYKEGINKNEEYRKQLDKKNELQKFQALWQLYHLEQQKEELTDKLSALNSEISSLKGKINNEMKSLQRSKSSFVKESAVISKQKSKLDYIFKDKEKLVSDLRLIKVPQQAAGKRISHIEKRIESLQKDLQRQKTYVERFETQLKVVTRSKEAFEEEIKQSARNYDKFKLNENDLKTYNCLHEKYLTEGGSILEEKIAVLNNDKREIQEELERFNKRADISKRRITEELSITGEKLDTQLNDLRVSLNEKNALHTERLHELKKLQSDIESANNQEYDLNFKLRETLVKIDDLSANQRETMKERKLRENIAMLKRFFPGVKGLVHDLCHPKKEKYGLAVSTILGKNFDSVIVENLTVAQECIAFLKKQRAGTASFIPLDTIETELPTLSLPDSQDYILSINAIDYEPEYEKAMQYVCGDSIICNTLNIAKDLKWKKGIRGKLVTIEGALIHKAGLMTGGISGDANNRWDKEEYQSLMSLKDKLLIQIDELSNGQRSNSIRAREVENSVSLLNSDIANLRTQVTQQKRSLDENRLEIKYHNDLIEKEIQPKITELKKKLDDLENTKDNLVKEKEALQNNIFKEFTSKIGFTIKEYENHSGELMRQQSKELQQLQKQILTVENKLQFETDRLSTTQRRYEKAQKDLENAQVEMKSLEEQEYAIEMKIGSIESKLEEHKNHLDELQKKFVTKQSELNSSEDILEDMNSNLQVLKRERDGIKEDIEKFDLERVTALKNCKISNINIPISSETTIDDLPISSTDNEAITISNSIDINYKGLPKKYKENNTDSARKELEQKIHEVEEILNELQPNARALERYDEAEGRFEVINNETEQLKAEEKKILNQFLKIKKKRKELFEKTFDYVSDHLDAIYRELTKNPNSNVELAGGNASLTIEDEDEPFNAGIKYHATPPLKRFKDMEYLSGGEKTVAALALLFAINSYQPSPFFVLDEVDAALDITNVQRIAAYIRRHRNPDLQFIVISLKNTMFEKSDALVGVYRQQQENSSKIITLDLSNYAE
notes: Smc1, S. cerevisiae, full length; Always co-expressed and co-purified with StrepII-Scc1-C; vector pFastBac NKI-LIC; details in Supplemental Experimental Procedures; not shown: His6, N-terminal, kept
B2: full-length HIS6-Smc1 K39I (natural protein, S. cerevisiae, UniProt P32908 1-1225, looked up)
chain: B1 chain with K39I
notes: Smc1, S. cerevisiae, full length, Walker A mutant; Co-purified with StrepII-Scc1-C; also called Walker A mutant Smc1 K39I; not shown: His6, N-terminal, kept
B3: full-length HIS6-Smc1 L1129V (natural protein, S. cerevisiae, UniProt P32908 1-1225, looked up)
chain: B1 chain with L1129V
notes: Smc1, S. cerevisiae, full length, Signature motif mutant; Co-purified with StrepII-Scc1-C; also called Signature motif mutant L1129V; not shown: His6, N-terminal, kept
B4: full-length HIS6-Smc1 D1164E (natural protein, S. cerevisiae, UniProt P32908 1-1225, looked up)
chain: B1 chain with D1164E
notes: Smc1, S. cerevisiae, full length, D-loop mutant; Co-purified with StrepII-Scc1-C; also called D-loop mutant D1164E; not shown: His6, N-terminal, kept

Each binder was assayed against T1, full-length StrepII-Smc3 (wild-type) (assay: scanning force microscopy; full-length Smc1 co-incubated with full-length Smc3 in the presence of ATP, seeded on mica; V shapes and ring shapes counted as heterodimers). Conditions: both partners purified.

Question: Does B1 bind?
Answer: binds

Question: Does B2 bind?
Answer: binds

Question: Does B3 bind?
Answer: binds

Question: Does B4 bind?
Answer: binds
